Results reported in the supplement of paper PMC9112550, “Optimization of the antimicrobial peptide Bac7 by deep mutational scanning” (BMC Biology, 2022).

Tested on: Escherichia coli TOP10
Assay: shrunken log2 fold change of peptide-encoding DNA abundance (4.5 h post-induction vs induction); higher = less antimicrobial activity (less host growth inhibition)
Conditions: time post-induction: 4.5 h; library: site-saturation at positions 5, 18, 19, 20
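Also: peptides expressed intracellularly from a pBAD plasmid library in pooled LB shake-flask culture, induced with 0.3% L-arabinose, DNA abundance read by NGS, three biological replicates, DESeq2 with apeglm shrinkage.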

Row | Sequence | shrunken log2 fold change
1 | RRIRFRPPRLPRPRPRPHTQPRP | -0.225
2 | RRIRMRPPRLPRPRPRPKKCPRP | 0.959
3 | RRIRKRPPRLPRPRPRPLYIPRP | -0.329
4 | RRIRQRPPRLPRPRPRPRMNPRP | -0.15
5 | RRIRQRPPRLPRPRPRPLCTPRP | -0.543
6 | RRIRFRPPRLPRPRPRPHCDPRP | -0.252
7 | RRIRYRPPRLPRPRPRPVRKPRP | 0.195
8 | RRIRNRPPRLPRPRPRPRTFPRP | -0.078
9 | RRIRFRPPRLPRPRPRPIYHPRP | -0.701
10 | RRIRGRPPRLPRPRPRPDHRPRP | -0.178
11 | RRIRNRPPRLPRPRPRPRQDPRP | 0.0815
12 | RRIRDRPPRLPRPRPRPQDPPRP | -0.213
13 | RRIRYRPPRLPRPRPRPDTKPRP | -0.0212
14 | RRIRWRPPRLPRPRPRPVMQPRP | 0.294
15 | RRIRKRPPRLPRPRPRPQIDPRP | 0.00239
16 | RRIRDRPPRLPRPRPRPTQTPRP | 0.121
17 | RRIRYRPPRLPRPRPRPKRMPRP | -0.207
18 | RRIRWRPPRLPRPRPRPSYWPRP | -0.415
19 | RRIRYRPPRLPRPRPRPTQNPRP | 0.298
20 | RRIRVRPPRLPRPRPRPQQHPRP | -0.0119
21 | RRIRARPPRLPRPRPRPNYYPRP | -0.414
22 | RRIRMRPPRLPRPRPRPKDGPRP | -0.0156
23 | RRIRCRPPRLPRPRPRPIEGPRP | 0.119
24 | RRIRMRPPRLPRPRPRPICKPRP | -0.0206
25 | RRIRERPPRLPRPRPRPVKFPRP | -0.02

Row | Sequence | shrunken log2 fold change
26 | RRIRNRPPRLPRPRPRPCGDPRP | 0.0293
27 | RRIRVRPPRLPRPRPRPGIHPRP | -0.118
28 | RRIRWRPPRLPRPRPRPTPVPRP | 0.49
29 | RRIRMRPPRLPRPRPRPFPMPRP | 0.237
30 | RRIRSRPPRLPRPRPRPFIMPRP | -1.09
31 | RRIRCRPPRLPRPRPRPFWYPRP | -0.353
32 | RRIRCRPPRLPRPRPRPYFQPRP | -0.846
33 | RRIRLRPPRLPRPRPRPMNAPRP | -0.446
34 | RRIRFRPPRLPRPRPRPYRIPRP | -0.34
35 | RRIRNRPPRLPRPRPRPLQGPRP | 0.0149
36 | RRIRSRPPRLPRPRPRPHQGPRP | 0.0275
37 | RRIRIRPPRLPRPRPRPAVIPRP | 0.0759
38 | RRIRYRPPRLPRPRPRPRTMPRP | -1.72
39 | RRIRPRPPRLPRPRPRPFGPPRP | -0.083
40 | RRIRSRPPRLPRPRPRPMSDPRP | -0.195
41 | RRIRQRPPRLPRPRPRPSCCPRP | -0.408
42 | RRIRKRPPRLPRPRPRPNPYPRP | -0.384
43 | RRIRWRPPRLPRPRPRPVQIPRP | 0.278
44 | RRIRERPPRLPRPRPRPFRWPRP | 0.0329
45 | RRIRVRPPRLPRPRPRPVIDPRP | 0.0104
46 | RRIRYRPPRLPRPRPRPTVFPRP | -0.317
47 | RRIRNRPPRLPRPRPRPIKWPRP | -0.498
48 | RRIRDRPPRLPRPRPRPNANPRP | 0.000903
49 | RRIRERPPRLPRPRPRPSTIPRP | -0.551
50 | RRIRIRPPRLPRPRPRPSLTPRP | -1.12

Row | Sequence | shrunken log2 fold change
51 | RRIRKRPPRLPRPRPRPPVSPRP | 0.0866
52 | RRIRWRPPRLPRPRPRPKMTPRP | 0.175
53 | RRIRYRPPRLPRPRPRPGRGPRP | 0.254
54 | RRIRERPPRLPRPRPRPVHNPRP | -1.53
55 | RRIRARPPRLPRPRPRPWWWPRP | 0.0143
56 | RRIRHRPPRLPRPRPRPGRCPRP | 0.127
57 | RRIRARPPRLPRPRPRPAKTPRP | 0.179
58 | RRIRKRPPRLPRPRPRPHVMPRP | 0.0754
59 | RRIRSRPPRLPRPRPRPLQFPRP | 0.0849
60 | RRIRHRPPRLPRPRPRPKNYPRP | -0.766
61 | RRIRKRPPRLPRPRPRPGYTPRP | -0.0679
62 | RRIRYRPPRLPRPRPRPDYHPRP | -0.0195
63 | RRIRSRPPRLPRPRPRPHACPRP | -0.0756
64 | RRIRSRPPRLPRPRPRPYLTPRP | -0.429
65 | RRIRTRPPRLPRPRPRPFGVPRP | 0.0203
66 | RRIRCRPPRLPRPRPRPQWFPRP | -0.106
67 | RRIRPRPPRLPRPRPRPPPSPRP | 1.12
68 | RRIRIRPPRLPRPRPRPMRDPRP | 0.189
69 | RRIRNRPPRLPRPRPRPGYSPRP | -0.42
70 | RRIRYRPPRLPRPRPRPRPIPRP | -0.0521
71 | RRIRGRPPRLPRPRPRPTTDPRP | 0.918
72 | RRIRERPPRLPRPRPRPGFKPRP | -0.324
73 | RRIRYRPPRLPRPRPRPWITPRP | -0.0192
74 | RRIRSRPPRLPRPRPRPIRDPRP | 0.156
75 | RRIRERPPRLPRPRPRPNRTPRP | -1.51
